Measured values taken from US10081661.

What was measured:
Experiment in all cases: cell_activity
[1] = system: ZFN SBS#47171 (human albumin); details: paired with 47079; K562, 75 ng mRNA
[2] = system: ZFN SBS#47192 (human albumin); details: paired with 47079; K562
[3] = system: ZFN SBS#47863 (human albumin); details: paired with 47898; K562
[4] = system: ZFN SBS#47864 (human albumin); details: paired with 47931; HepG2
[5] = system: ZFN SBS#40477 (human albumin); details: paired with 47192; HepG2
[6] = system: ZFN SBS#47079 (human albumin); details: paired with 47863; K562
[7] = system: ZFN SBS#47169 (human albumin); details: paired with 47171; HepG2, 100 ng mRNA each
[8] = system: ZFN SBS#47898 (human albumin); details: paired with 47863; K562
[9] = system: ZFN SBS#47931 (human albumin); details: paired with 47863; K562

Sequence	activity [1] [% indels]	activity [2] [% indels]	activity [3] [% indels]	activity [4] [% indels]	activity [5] [% indels]	activity [6] [% indels]	activity [7] [% indels]	activity [8] [% indels]	activity [9] [% indels]
TTTGGGATAGTTATGAATTCAATCTTCA (double strand) [human albumin site]	79.4	77.9	91.9	21.3					
CCTATCCATTGCACTATGCTTTATTTAA (double strand) [human/rhesus albumin site]					23.7	86.8	22.2	91.9	78.9
